# Data from patent US20110009342A1, “USES OF PDCD5 POLYPEPTIDE FOR TUMOR CHEMOTHERAPY AND ORGAN PROTECTION” (priority 2008, published 2011).
# B1: rhPDCD5: recombinant human programmed cell death 5 protein (SEQ ID NO:1) expressed in E. coli and purified (protein, listed as Homo sapiens)
# chain: MADEELEALRRQRLAELQAKHGDPGDAAQQEAKHREAEMRNSILAQVLDQSARARLSNLALVKPEKTKAVENYLIQMARYGQLSEKVSEQGLIEILKKVSQQTEKTTTVKFNRRKVMDSDEDDDY
# Key:
# [1] = system: HeLa, MGC-803, HT-29, A549, PC-3, U937, HL-60, Jurkat T lymphocytes, K562, Raji, TF-1 cells; experiment: entry of exogenous PDCD5 into cell types; format: cell-based
# K562 cells = experiment: Annexin-V apoptosis by flow cytometry, Ara-C; format: cell-based
# Procedure: Methods: Cell staining with FITC/Annexin-V and cell apoptosis detection in vitro by flow cytometry: K562 cells (ATCC) were maintained in RPMI 1640 (Life Technologies, USA) supplemented with 10% FBS (Hyclone, USA), and were plated in 24-well culture dishes to a density of 2×10^5 cells per well. rhPDCD5 protein was added in each well with a final concentration of 15 μg/mL, 30 μg/mL and 60 μg/mL, respectively. Chemotherapeutic drug Ara-C (Pharmacia, Italia) was then added with a final concentration of 0.1 μg/mL and RPMI 1640 medium supplemented with 10% FBS was added to bring the culture system to 1 mL. After incubation for 48 hours, the cells were stained with Annexin-V/PI (Biosea) and then were analyzed for apoptosis by flow cytometry.
# U937 cells [2] = experiment: cell apoptosis assay, DNR; format: cell-based
# Procedure: Methods: Cell apoptosis assay: U937 cells (ATCC), in the logarithmic phase, were maintained in RPMI 1640 (Life Technologies, USA) supplemented with 10% FBS (Hyclone, USA), and were adjusted to a density of 2×10^5 cells/mL and then were divided into control groups and test groups. U937 cells in the control groups were treated with DNR (Pharmacia Italia SPA) alone, with the final concentrations of 0 μg/mL, 0.05 μg/mL, and 0.1 μg/mL. U937 cells in the test groups were treated with DNR of various concentrations combined with PDCD5 of various concentrations, with the final concentrations of PDCD5 being 0 μg/mL, 2.5 μg/mL, and 5 μg/mL, respectively. After being incubated for 24 hours in a 37° C., 5% CO2 and saturatedly humidified incubator, the cells were stained with Annexin-V/PI (Biosea) and then were analyzed for apoptosis with a FACSCalibur flow cytometer.
# U937 cells [3] = experiment: colony forming ability (CFA), DNR; format: cell-based
# Procedure: (§1) Analysis for colony forming ability (CFA): U937 cells (ATCC), in the logarithmic phase, were maintained in RPMI 1640 medium supplemented with 20% FBS and 0.4% methyl cellulose (Sigma) by the semi-solid colony culture method and were adjusted to a density of 5×10^3 cells/mL. The cells were divided into control groups and test groups, and each group was assayed in triple wells. U937 cells in the control groups were treated with DNR alone, with the final concentrations of 0 ng/mL and 0.5 ng/mL. U937 cells in the test group were treated with DNR of various concentrations combined with PDCD5 of various concentrations, while the final concentrations of PDCD5 were 0 μg/mL, 0.625 μg/mL, 1.25 μg/mL, and 2.5 μg/mL, respectively. After incubation for 14 days in a 37° C., 5% CO2 and saturatedly humidified incubator, a colony with more than 30 cells was counted by an inverted microscope in order to analyze colony forming ability of each group. The colony forming ability was shown as the ratio of average number of colony in each group versus that of the untreated control group in which the final concentrations of DNR and PDCD5 were 0 μg/mL.
# Raji cells [4] = experiment: FITC/Annexin-V apoptosis by flow cytometry, DNR; format: cell-based
# Procedure: Methods: Raji cells were cultured in RPMI 1640 medium (Life Technologies, USA) supplemented with 10% Fetal Bovine Serum (FBS, Hyclone, USA). The cells were seeded in 24-well plates with 2×10^5 cells per well. rhPDCD5 was added to each well and the final concentrations were 0 μg/mL, 2.5 μg/mL and 5 μg/mL, respectively. Subsequently, DNR was added and the final concentrations were 0 μg/mL and 0.05 μg/mL, and RPMI 1640 medium supplemented with 10% FBS was added to ensure the system was brought to 1 mL. After 24 h incubation, the cells were stained with FITC/Annexin-V (Beijing Biosea Biotechnology Co., Ltd.) and the apoptosis was detected by flow cytometry.
# Raji cells [5] = experiment: colony-forming ability (CFA) assay, ADM; format: cell-based
# Procedure: as §1, with “The colony forming ability was shown as the ratio of average number of colony in each group versus that of the untreated control group in which the final concentrations of DNR and PDCD5 were 0 μg/mL.” left out
# Methods: Colony-forming ability (CFA) assay: Raji cells of logarithmic growth phase were cultured, and the method was the same as that in Example 8. […] The numbers of colonies (containing≧30 cells) were counted by inverted microscope to observe the CFA, which is indicated by the ratio of average number of colony formation in each of the test groups versus that of the untreated control group.
# HL-60 cells = experiment: cell apoptosis assay, As2O3; format: cell-based
# Procedure: Methods: Cell apoptosis assay: HL-60 cells (ATCC) of logarithmic growth phase were cultured and the density of cells was 2×10^5/mL. The cells were divided into control and test groups. In the control groups, the HL60 cells were treated only with As2O3 (Harbin Yida Pharmaceutical Co., Ltd.), and the final concentration of As2O3 were 0 μg/mL, 0.25 μg/mL and 0.5 μg/mL, respectively. In the test groups, the HL60 cells were treated with As2O3 in the various concentrations combined with PDCD5 in various concentrations, the final concentrations of PDCD5 being 0 μg/mL, 5 μg/mL, 10 μg/mL and 20 μg/mL, respectively. The cells were incubated in a 37° C., 5% CO2 and saturatedly humidified incubator for 24 h, and subsequently were stained with Annexin-V/PI and detected for apoptosis by flow cytometer.
# HL60 cells = experiment: colony-forming ability (CFA) assay, As2O3; format: cell-based
# Procedure: as §1
# Colony-forming ability (CFA) assay: HL60 cells of logarithmic growth phase were cultured by a method identical to that in Example 8. The cells were divided into control and test groups (each with 3 wells): In the control groups, the HL60 cells were treated only with arsenic trioxide and the final concentration of which were 0 μg/mL and 0.25 μg/mL, respectively; in the test groups, the HL60 cells were treated with different concentrations of As2O3, which was combined with different concentrations of PDCD5, the final concentrations of PDCD5 were 0 μg/mL, 5 μg/mL, 10 μg/mL and 20 μg/mL, respectively. Cultures were incubated in a 37° C., 5% CO2 and saturatedly humidified incubator for 14 days. The numbers of colonies (containing≧30 cells) were counted on day 14 by inverted microscope. The colony-forming ability was observed as the ratio of the number of average colony formation in the test groups versus that in the untreated control group. […]
# 7721 liver cancer cells = conditions: Li et al. 2000; cited from earlier work
molecule,measurement,setting,value
B1,specificity for cell types while entering into cells,[1],shows no specificity for cell types
same,promotion of apoptosis induced by Ara-C,K562 cells,could significantly promote apoptosis
same,enhancement of DNR-induced apoptosis,U937 cells [2],can significantly enhance DNR-induced apoptosis
same,enhancement of inhibition of CFA by DNR,U937 cells [3],can significantly enhance the inhibition of CFA by DNR
same,effect on the CFA of U937 cells,U937 cells [3]; rhPDCD5 alone,did not have significant effect
same,enhancement of DNR-induced apoptosis,Raji cells [4],can significantly enhance DNR-induced apoptosis
same,enhancement of inhibition of CFA by ADM,Raji cells [5],can significantly enhance the inhibition of CFA by ADM
same,enhancement of induced apoptosis,HL-60 cells,can significantly enhance As2O3-induced apoptosis
same,enhancement of CFA inhibition by As2O3,HL60 cells,can significantly enhance the CFA inhibition by As2O3
same,effect on the CFA of HL60,HL60 cells; rhPDCD5 alone,no significant affect
same,effect on apoptosis induced by hydroxy camptothecin (HCPT),7721 liver cancer cells,could accelerate apoptosis of 7721 liver cancer cells
